# Positions count from the first letter of the chain named.
# B1: INS Analog 30 (other)
# chain: FVSQHLCGSHLVEALRLVCGERGFHYTPKTGGGGGGGIVEQCCHSICSLYQLENYCGPGPQPGPQPGPQPGPQPGPQPGPQPGPQPGPQEVQLLESGGGLVQPGGSLRLSCAASGRYIDETAVAWFRQAPGKEREFVAGIGGGVDITYYADSVKGRFTISRDNSKNTLYLQMNSLRPEDTAVYYCAARPGRPLITSKVADLYPYWGQGTLVTVSSPP
# notes: single-chain insulin B-L2-A-L1-VHH fusion; also called Ex. 30
# B2: INS Analog 24 (other)
# chain: B1 chain with R16H, Y50E
# notes: single-chain insulin B-L2-A-L1-VHH fusion; also called Ex. 24
# B3: INS Analog 26 (other)
# chain: B1 chain with H25F, H44T
# notes: single-chain insulin B-L2-A-L1-VHH fusion; also called Ex. 26
# B4: INS Analog 28 (other)
# chain: B1 chain with H25F
# notes: single-chain insulin B-L2-A-L1-VHH fusion; also called Ex. 28
# B5: INS Analog 29 (other)
# chain: FVSQHLCGSHLVEALRLVCGERGFHYTPKTGGGGGGGIVEQCCHSICSLYQLENYCGGGGGQGGGGQGGGGQGGGGQGGGGQEVQLLESGGGLVQPGGSLRLSCAASGRYIDETAVAWFRQAPGKEREFVAGIGGGVDITYYADSVKGRFTISRDNSKNTLYLQMNSLRPEDTAVYYCAARPGRPLITSKVADLYPYWGQGTLVTVSSPP
# notes: single-chain insulin B-L2-A-L1-VHH fusion; also called Ex. 29
# B6: INS Analog 27 (other)
# chain: B5 chain with H25F
# notes: single-chain insulin B-L2-A-L1-VHH fusion; also called Ex. 27
# B7: INS Analog 23 (other)
# chain: B5 chain with R16H, Y50E
# notes: single-chain insulin B-L2-A-L1-VHH fusion; also called Ex. 23
# Biological target: T1, rabbit serum albumin (rabbit, UniProt P49065 25-608)
# T1 construct: bought protein, amine-coupled to a CM5 chip; also called Rabbit SA
# Assay: SPR (Biacore 8K), albumin immobilised, 25 C
# Method: (§1) Immobilization of serum albumin to a Series S Sensor Chip CM5 surface is performed according to the manufacturer's instructions (Amine Coupling Kit BR-1000-50). Briefly, carboxyl groups on the sensor chip surfaces (flow cell 1 and 2) are activated by injecting 70 μL of a mixture containing 75 mg/ml EDC and 11.5 mg/ml NHS at 10 μL/min. Human, cynomolgus monkey, mouse, rat, pig, dog, cow and rabbit serum albumin are diluted in 10 mM NaOAc pH 4.0 (BR-1003-49) at 1, 1, 3, 1, 1, 1, 1 and 1 μg/mL and then injected over the activated chip surfaces (flow cell 2, […]) at 10 μL/min for 90 sec (human, mouse, rat, pig and cow serum albumin are obtained from Sigma Aldrich (St. Louis, Mo.); cynomolgus monkey serum albumin is obtained from Holzel Diagnostika (Cologne, Germany); dog serum albumin is obtained from Molecular Innovations (Novi, Mich.); and rabbit serum albumin is obtained from Fitzgerald Industries International (Acton, Mass.)). […] Excess reactive groups on the surfaces (flow cell 1 and 2) are deactivated by injecting 70 μL of 1 M ETA HCl—NaOH pH 8.5 at 10 μL/min.
# (§2) 150 μL of sample is individually injecting sequentially across the immobilized serum albumins surface and then dissociates for 600 sec at 50 μL/min flow rate at 25° C. The surface is regenerated by injecting 10 mM glycine-HCl pH 1.5 (BR-1003-54) at 50 μL/min for 100 sec. The resulting sensorgrams are analyzed using Biacore 8K Insight Evaluation Software (version 2.0.15.12933) 1:1 binding kinetics or steady-state affinity model fitting to calculate the binding kinetic parameter association rate (ka), dissociation rate (kd), and equilibrium dissociation constant (KD)
row,binding result,Binder
1,no binding (tested: up to 1000 nM),B1
2,no binding (tested: up to 1000 nM),B2
3,no binding (tested: up to 1000 nM),B3
4,no binding (tested: up to 1000 nM),B4
5,no binding (tested: up to 1000 nM),B5
6,no binding (tested: up to 1000 nM),B6
7,no binding (tested: up to 1000 nM),B7

# Biological target: T2, human insulin receptor isoform A with C-terminal C9 tag (human, UniProt P06213 28-1382)
# T2 construct: membranes of stably transfected HEK293 cells; also called hIR-A; human IR-A
# Assay: 125I-insulin competition SPA, hIR-A membranes, 0.1% BSA
# Method: (§3) The assays are performed with a SPA method using polyvinyltoluene (PVT) wheat germ agglutinin-coupled SPA beads (Perkin Elmer). Assay buffer contains 50 mM Tris-HCl, pH 7.5, 150 mM NaCl and either A) 0.1% w/v fatty-acid free BSA; B) 0.1% w/v fatty-acid free human serum albumin (HSA); C) 0.1% w/v rat serum albumin (RSA); or D) 0.001% Nonidet P-40 Substitute (NP-40, Roche Diagnostics). Ten-point concentration response curves using three-fold serial dilutions of test samples or controls are prepared in Assay Buffer using a Freedom/Evo robot (Tecan).
# (§4) Percent specific inhibition (y-axis) is plotted versus the log concentration of compound (x-axis). […] Reported Ki values are shown as the geometric mean with the standard error (Delta Method Standard Error) and the number of independent replicate determinations used to calculate the geometric mean indicated by n.
row,Ki [nM],Binder
1,127,B1
2,56.8,B2
3,389,B3
4,71,B4
5,179,B5
6,103,B6
7,55.1,B7

# Biological target: T2, human insulin receptor isoform A with …
# Assay: 125I-insulin competition SPA, hIR-A membranes, 0.1% HSA
# Method: as §3, §4
row,Ki [nM],Binder
1,17.2,B1
2,40.6,B3
3,28.2,B5

# Biological target: T3, human insulin receptor isoform B with C-terminal C9 tag (human, UniProt P06213 28-1382)
# T3 construct: membranes of stably transfected HEK293 cells; also called hIR-B; human IR-B
# Assay: 125I-insulin competition SPA, hIR-B membranes, 0.1% BSA
# Method: as §3, §4
row,Ki [nM],Binder
1,100,B1
2,405,B3
3,124,B5

# Biological target: T3, human insulin receptor isoform B with …
# Assay: 125I-insulin competition SPA, hIR-B membranes, 0.1% HSA
# Method: as §3, §4
row,Ki [nM],Binder
1,24.5,B1
2,105,B3
3,38.1,B5

# Biological target: T4, human serum albumin (human, UniProt P02768 25-609)
# T4 construct: bought protein, amine-coupled to a CM5 chip; also called Human SA; HSA
# Assay: SPR (Biacore 8K), albumin immobilised, 25 C, 1:1 kinetics
# Method: as §1, §2
Kd [nM],koff [s⁻¹],kon [M⁻¹ s⁻¹],Binder
0.73,0.00011,160000,B1
0.91,0.00012,140000,B2
0.49,9.4e-05,190000,B3
0.73,0.00012,160000,B4
0.74,0.00013,180000,B5
0.75,0.00013,170000,B6
0.73,9e-05,120000,B7

# Biological target: T5, cynomolgus monkey serum albumin (cynomolgus monkey, UniProt A2V9Z4 25-608)
# T5 construct: bought protein, amine-coupled to a CM5 chip; also called Cyno SA
# Assay: as above
# Method: as §1, §2
Kd [nM],koff [s⁻¹],kon [M⁻¹ s⁻¹],Binder
4.3,0.00069,160000,B1
5.5,0.00075,130000,B2
3.9,0.00069,180000,B3
4.1,0.00067,170000,B4
4.4,0.00078,180000,B5
4.7,0.00078,170000,B6
6.8,0.00084,120000,B7

# Biological target: T6, mouse serum albumin (mouse, UniProt P07724 25-608)
# T6 construct: bought protein, amine-coupled to a CM5 chip; also called Mouse SA
# Assay: as above
# Method: as §1, §2
Kd [nM],koff [s⁻¹],kon [M⁻¹ s⁻¹],Binder
39,0.0071,190000,B1
49,0.0073,150000,B2
35,0.0069,200000,B3
37,0.006,160000,B4
48,0.0087,180000,B5
45,0.0079,170000,B6
76,0.0093,120000,B7

# Biological target: T7, rat serum albumin (rat, UniProt P02770 25-608)
# T7 construct: bought protein, amine-coupled to a CM5 chip; also called Rat SA; RSA
# Assay: as above
# Method: as §1, §2
Kd [nM],koff [s⁻¹],kon [M⁻¹ s⁻¹],Binder
30,0.0051,170000,B1
40,0.0057,140000,B2
32,0.0056,170000,B3
26,0.0048,180000,B4
32,0.0065,200000,B5
32,0.0061,190000,B6
53,0.0065,120000,B7

# Biological target: T8, pig serum albumin (pig, UniProt P08835 25-607)
# T8 construct: bought protein, amine-coupled to a CM5 chip; also called Pig SA
# Assay: as above
# Method: as §1, §2
Kd [nM],koff [s⁻¹],kon [M⁻¹ s⁻¹],Binder
80,0.0092,110000,B1
100,0.011,100000,B2
87,0.0098,110000,B3
75,0.0084,110000,B4
86,0.013,150000,B5
90,0.01,120000,B6
130,0.012,95000,B7

# Biological target: T9, dog serum albumin (dog, UniProt P49822 25-608)
# T9 construct: bought protein, amine-coupled to a CM5 chip; also called Dog SA
# Assay: as above
# Method: as §1, §2
Kd [nM],koff [s⁻¹],kon [M⁻¹ s⁻¹],Binder
13,0.0022,170000,B1
16,0.0024,150000,B2
13,0.0023,170000,B3
12,0.0021,170000,B4
16,0.0032,190000,B5
17,0.003,180000,B6
23,0.0033,140000,B7

# Biological target: T2, human insulin receptor isoform A with …
# Assay: 125I-insulin competition SPA, hIR-A membranes, 0.001% NP-40
# Method: as §3, §4
row,Ki [nM],Binder
1,49.3,B1
2,21.8,B2
3,105,B3
4,32.7,B4
5,34,B5
6,50.5,B6
7,18.9,B7

# Biological target: T3, human insulin receptor isoform B with …
# Assay: 125I-insulin competition SPA, hIR-B membranes, 0.001% NP-40
# Method: as §3, §4
row,Ki [nM],Binder
1,60,B1
2,214,B3
3,62.5,B5

# Biological target: T10, cow serum albumin (cow, UniProt P02769 25-607)
# T10 construct: bought protein, amine-coupled to a CM5 chip; also called Cow SA; Bovine SA
# Assay: SPR (Biacore 8K), albumin immobilised, 25 C, steady-state affinity
# Method: as §1, §2
row,Kd [nM],Binder
1,370,B1
2,430,B2
3,400,B3
4,400,B4
5,380,B5
6,390,B6
7,590,B7
